How the values were obtained:
RFQ-VISTA-ECD-Fc (human) = experiment: ELISA, 10 ug/mL antibody on plate-bound mutant VISTA-Fc
4.1-VISTA-ECD-Fc (human) = experiment: ELISA on plate-bound VISTA-ECD-Fc
5.1-VISTA-ECD-Fc (human) = experiment: ELISA on plate-bound VISTA-ECD-Fc
[1] = target: 2.1C-VISTA-ECD-Fc (human); experiment: ELISA on plate-bound VISTA-ECD-Fc
2.1C-VISTA-ECD-Fc (human), sequence (chain, as listed by the source): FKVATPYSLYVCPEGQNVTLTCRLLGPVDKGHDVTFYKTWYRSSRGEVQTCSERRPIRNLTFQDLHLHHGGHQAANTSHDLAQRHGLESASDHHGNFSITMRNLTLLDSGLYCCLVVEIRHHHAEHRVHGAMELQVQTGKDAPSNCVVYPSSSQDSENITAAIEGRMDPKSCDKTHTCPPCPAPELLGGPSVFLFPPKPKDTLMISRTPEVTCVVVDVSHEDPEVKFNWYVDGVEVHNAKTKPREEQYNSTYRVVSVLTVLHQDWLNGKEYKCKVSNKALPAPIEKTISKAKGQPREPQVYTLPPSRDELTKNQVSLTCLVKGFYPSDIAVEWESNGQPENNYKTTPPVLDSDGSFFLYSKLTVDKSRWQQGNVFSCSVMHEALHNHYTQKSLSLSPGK

5.1-VISTA-ECD-Fc (human), sequence (chain, as listed by the source): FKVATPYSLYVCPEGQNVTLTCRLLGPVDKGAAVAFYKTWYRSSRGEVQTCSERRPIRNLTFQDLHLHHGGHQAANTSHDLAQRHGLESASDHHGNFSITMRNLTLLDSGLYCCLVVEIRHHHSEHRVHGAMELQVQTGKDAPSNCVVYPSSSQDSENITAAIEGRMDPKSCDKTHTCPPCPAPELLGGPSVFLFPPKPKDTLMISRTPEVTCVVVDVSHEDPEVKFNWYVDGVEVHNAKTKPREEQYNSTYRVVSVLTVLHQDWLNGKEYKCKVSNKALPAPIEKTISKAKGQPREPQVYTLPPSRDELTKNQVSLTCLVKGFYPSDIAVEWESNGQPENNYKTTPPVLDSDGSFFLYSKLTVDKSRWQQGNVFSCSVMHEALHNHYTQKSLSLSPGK
RFQ-VISTA-ECD-Fc (human), sequence (chain, as listed by the source): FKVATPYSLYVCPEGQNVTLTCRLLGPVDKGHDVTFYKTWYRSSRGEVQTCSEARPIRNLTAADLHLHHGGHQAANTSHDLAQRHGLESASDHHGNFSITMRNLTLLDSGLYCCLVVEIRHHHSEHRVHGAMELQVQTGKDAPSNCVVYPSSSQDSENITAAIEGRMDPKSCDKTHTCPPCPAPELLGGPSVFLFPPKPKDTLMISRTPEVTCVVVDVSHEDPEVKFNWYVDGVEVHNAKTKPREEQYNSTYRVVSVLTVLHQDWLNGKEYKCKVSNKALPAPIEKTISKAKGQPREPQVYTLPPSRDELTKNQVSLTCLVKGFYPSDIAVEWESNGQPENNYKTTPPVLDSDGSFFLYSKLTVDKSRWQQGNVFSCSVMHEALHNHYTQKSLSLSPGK
4.1-VISTA-ECD-Fc (human), sequence (chain, as listed by the source): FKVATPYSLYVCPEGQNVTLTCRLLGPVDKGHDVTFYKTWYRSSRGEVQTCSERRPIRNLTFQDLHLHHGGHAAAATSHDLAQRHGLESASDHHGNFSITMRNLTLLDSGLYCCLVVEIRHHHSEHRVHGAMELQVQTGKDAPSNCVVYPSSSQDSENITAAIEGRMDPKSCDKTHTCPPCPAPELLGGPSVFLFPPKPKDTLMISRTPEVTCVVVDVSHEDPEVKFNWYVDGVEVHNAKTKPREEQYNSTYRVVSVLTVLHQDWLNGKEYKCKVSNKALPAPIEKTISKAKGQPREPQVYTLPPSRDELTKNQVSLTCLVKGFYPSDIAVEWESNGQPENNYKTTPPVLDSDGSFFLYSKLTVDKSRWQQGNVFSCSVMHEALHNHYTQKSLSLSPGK

IgG1 (antibody)
ELISA Abs 450 nm (RFQ-VISTA-ECD-Fc (human)): 0.019 Abs 450 nm
EC50 (4.1-VISTA-ECD-Fc (human)): 100 µg/mL
EC50 (5.1-VISTA-ECD-Fc (human)): 100 µg/mL
EC50 [1]: 100 µg/mL

— US20240132593A1
